Laboratory results taken from patent US20220213209A1 (JOINT STOCK COMPANY BIOCAD, published 2022).

B1: BCD166-01-014 (antibody, human IgG1, lambda, V domains shown)
VH: QVQLVQSGGGLVQPGGSLRLSCAASGFTFSYYWMYWVRQAPGKGLEWVSAISWNGGRTYYAESMKGRFTISRDNAQNTLYLQMNSLKSEDTAVYYCAKNRYYSDPNYGMNLWGKGTTVTVSS
VL: QSALTQPASVSGSPGQSITISCTGTSTDIGTYKYISWYQQHPGKAPKLIIYGVSHRPSGVSDRFSGSKSDNTASLTISGLQAEDEADYYCSSYTSSGTVVFGGGTKVTVLG
notes: Full-length IgG1, lambda light chain; from an immune llama-human CHARM Fab library; also called BCD166-01-14
B2: BCD166-02-01 (antibody, human IgG1, kappa)
heavy: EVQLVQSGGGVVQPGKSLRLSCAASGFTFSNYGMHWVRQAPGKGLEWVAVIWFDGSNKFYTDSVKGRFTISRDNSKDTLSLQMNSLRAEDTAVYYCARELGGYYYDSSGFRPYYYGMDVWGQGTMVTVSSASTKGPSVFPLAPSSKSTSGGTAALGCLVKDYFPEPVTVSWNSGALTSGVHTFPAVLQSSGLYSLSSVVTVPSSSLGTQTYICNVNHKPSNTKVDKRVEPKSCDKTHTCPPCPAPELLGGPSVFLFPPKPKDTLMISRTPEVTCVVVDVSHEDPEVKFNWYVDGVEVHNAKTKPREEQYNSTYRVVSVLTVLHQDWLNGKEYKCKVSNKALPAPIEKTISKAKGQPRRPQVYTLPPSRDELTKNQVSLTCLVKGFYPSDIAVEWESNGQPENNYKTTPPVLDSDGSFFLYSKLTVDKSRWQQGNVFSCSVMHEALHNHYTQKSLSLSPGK
light: DVVMTQSPSSVSASVGDRVTITCRASQSIGSWLAWYQQKPGEAPKLLIYAASTLQRGVPSRFSGGGYGTEFTLTISSLQPEDFATYFCQQSHSHPLTFGGGTKVEIKRTVAAPSVFIFPPSDEQLKSGTASVVCLLNNFYPREAKVQWKVDNALQSGNSQESVTEQDSKDSTYSLSSTLTLSKADYEKHKVYACEVTHQGLSSPVTKSFNRGEC
notes: BCD166-01-01 with the E345R mutation (EU numbering) in the IgG1 Fc; also called BCD166-02-001
B3: BCD166-01-01 (antibody, human IgG1, kappa)
heavy: not shown
light: DVVMTQSPSSVSASVGDRVTITCRASQSIGSWLAWYQQKPGEAPKLLIYAASTLQRGVPSRFSGGGYGTEFTLTISSLQPEDFATYFCQQSHSHPLTFGGGTKVEIKRTVAAPSVFIFPPSDEQLKSGTASVVCLLNNFYPREAKVQWKVDNALQSGNSQESVTEQDSKDSTYSLSSTLTLSKADYEKHKVYACEVTHQGLSSPVTKSFNRGEC
notes: Full-length human IgG1, kappa; also called BCD166-01-001; BCD166-NHVKITSe13-5-H3-25

How the values were obtained:
[1] = biological target: T1, recombinant human GITR antigen (extracellular domain) (human, UniProt Q9Y5U5 26-162); assay: BLI OctetRed 96, antigen on AR2G sensors, antibody in solution, 1:1 model
T1 construct: extracellular domain
T1 sequence (looked up): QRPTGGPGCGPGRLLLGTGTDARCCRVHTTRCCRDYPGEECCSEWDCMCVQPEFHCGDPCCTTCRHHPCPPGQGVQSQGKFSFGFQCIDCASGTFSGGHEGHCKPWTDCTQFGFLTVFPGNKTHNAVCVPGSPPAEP
Description: Binding affinity constants for anti-GITR antibody-human/rhesus macaque/cynomolgus monkey GITR interactions were determined using OctetRed 96 according to manufacturer (ForteBio) protocol. Antigen 25 μg/ml was non-specifically immobilized onto the surface of amine-reactive sensors of the second generation (AR2G) (ForteBio, using standard protocol according to manufacturer's instructions for preparation and immobilization of AR2G sensors). […] The assay was conducted at 30° C. using PBS comprising 0.1% Tween-20 and 0.1% BSA as a working buffer.
The resulting sensograms, after subtracting a reference signal, were analyzed using Octet Data Analysis software (Version 8.0) in accordance with the standard procedure and using 1:1 interaction model. All tested antibodies show high affinity and specificity for human GITR.

macaca mulatta GITR = biological target: T2, macaca mulatta GITR (Macaca mulatta, UniProt F7DDV8 20-156); assay: as above
T2 construct: also called rhesus macaque GITR; mcyGITR Macaca mulatta
T2 sequence: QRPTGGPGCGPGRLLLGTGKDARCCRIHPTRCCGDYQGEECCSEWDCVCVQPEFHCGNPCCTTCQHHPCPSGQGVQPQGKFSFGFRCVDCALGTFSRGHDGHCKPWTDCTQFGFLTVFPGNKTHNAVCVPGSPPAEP
Description: (§1) Binding affinity constants for anti-GITR antibodies and rhesus macaque/cynomolgus monkey GITR were obtained using OctetRed 96 according to manufacturer's (ForteBio) protocol. Antigen 25 μg/ml was non-specifically immobilized onto the surface of amine-reactive sensors of the second generation (AR2G) (ForteBio, using standard protocol according to manufacturer's instructions for preparation and immobilization of AR2G sensors). […] The assay was conducted at 30° C. using PBS comprising 0.1% Tween-20 and 0.1% BSA as a working buffer.
(§2) The resulting sensograms, after subtracting a reference signal, were analyzed using Octet Data Analysis software (Version 8.0) in accordance with the standard procedure and using 1:1 interaction model.

macaca Cynomolgus GITR = biological target: T3, macaca Cynomolgus GITR (Macaca cynomolgus); assay: as above
T3 construct: also called cynomolgus monkey GITR; monkey GITR
Description: as §1, §2

murine GITR-Fc = biological target: T4, murine GITR-Fc (Mus musculus, UniProt O35714 20-153); assay: ELISA, plate coated with mouse GITR-Fc 0.5 µg/ml, antibody titrated 10 to 0.02 µg/ml
T4 construct: extracellular domain; also called mouse GITR; musGITR
T4 sequence (looked up): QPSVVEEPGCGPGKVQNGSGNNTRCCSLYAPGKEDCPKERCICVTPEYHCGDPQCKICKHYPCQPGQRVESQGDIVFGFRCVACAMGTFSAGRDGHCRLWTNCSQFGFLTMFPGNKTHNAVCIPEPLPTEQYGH
Description: ELISA was used to measure relative affinity of antibodies against GITR-Fc from different organisms. For binding assay, ELISA plate wells (medium binding from Greiner bio one) were coated with 50 μl of human/cynomolgus/murine GITR-Fc (0.5 μg/ml in 1× carbonate buffer), sealed and incubated overnight at 4° C. All further steps were performed in accordance with the standard ELISA protocol described in Example 6. […] Therefore, candidate BCD166-01-011 was excluded from further study due to the lack of apparent specificity for the monkey GITR. Candidates BCD166-01-01 and BCD166-01-014 were finalized for further development.

[2] = biological target: T5, GITR stably expressed on the surface of HEK-293 cells (UniProt Q9Y5U5 26-241); assay: cell-based or functional assay
T5 sequence (looked up): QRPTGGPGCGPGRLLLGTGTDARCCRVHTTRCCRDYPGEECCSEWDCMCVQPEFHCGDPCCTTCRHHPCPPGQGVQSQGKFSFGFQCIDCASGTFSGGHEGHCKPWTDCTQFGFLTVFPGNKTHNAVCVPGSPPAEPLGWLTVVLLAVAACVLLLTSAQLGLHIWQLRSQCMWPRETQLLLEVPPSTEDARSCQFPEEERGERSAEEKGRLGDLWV

human FcRn = biological target: T6, human FcRn (human, UniProt P55899 24-297; P61769 21-119, biotinylated (site not stated)); assay: bio-layer interferometry (OctetRed 96), biotinylated receptor on streptavidin sensors, antibody in solution, pH 6 buffer, 30 °C
T6 construct: Biotinylated receptor on streptavidin sensors
T6 sequence (P55899 24-297 limits assumed, chain 1 of 2): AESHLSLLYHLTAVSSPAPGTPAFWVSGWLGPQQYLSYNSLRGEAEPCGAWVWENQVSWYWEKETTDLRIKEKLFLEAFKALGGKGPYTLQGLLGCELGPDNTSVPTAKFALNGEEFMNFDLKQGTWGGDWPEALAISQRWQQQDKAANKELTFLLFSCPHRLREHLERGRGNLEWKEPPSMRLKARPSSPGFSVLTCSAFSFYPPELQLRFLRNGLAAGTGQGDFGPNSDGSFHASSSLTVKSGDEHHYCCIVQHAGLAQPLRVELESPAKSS
T6 sequence (P61769 21-119 limits assumed, chain 2 of 2): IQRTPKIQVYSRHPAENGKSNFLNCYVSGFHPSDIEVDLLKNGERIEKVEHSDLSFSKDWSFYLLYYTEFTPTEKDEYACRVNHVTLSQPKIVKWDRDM
Description: (§3) The binding affinity constants for antibody BCD166-02-01-human FcRn, FcgRIIIa158V, FcgRIIIa158F, FcgRIIa131H, FcgRIIa131R, FcgRIIb and FcgRIa interactions were determined using OctetRed 96 (ForteBio). Biotinylated receptors were immobilized on the surface of streptavidin sensors (SA). We conducted and analyzed the association and dissociation between receptors and antibody in a working buffer (PBS containing 0.1% Tween-20 and 0.1% BSA: for FcRn receptor we used pH6 buffer, for the other receptors we used pH 7.4 buffer) at 30° C. The resulting sensograms were analyzed in accordance with 1:1 or 2:1 models, the affinity constants were calculated using Octet Data Analysis Software 8.0 User Guide Copyright 2011©.

human FcgRIIIa158V = biological target: T7, human FcgRIIIa158V (human, UniProt P08637 17-208, biotinylated (site not stated)); assay: bio-layer interferometry (OctetRed 96), biotinylated receptor on streptavidin sensors, antibody in solution, pH 7.4 buffer, 30 °C
T7 construct: Biotinylated receptor on streptavidin sensors
T7 sequence (P08637 17-208 F176V limits assumed): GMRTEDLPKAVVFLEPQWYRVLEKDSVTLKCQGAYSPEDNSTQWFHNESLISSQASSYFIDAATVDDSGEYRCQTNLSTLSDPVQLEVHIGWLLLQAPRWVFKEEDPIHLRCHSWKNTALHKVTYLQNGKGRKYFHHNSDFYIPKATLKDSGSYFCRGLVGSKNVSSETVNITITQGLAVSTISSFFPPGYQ
Description: as §3

human FcgRIIIa158F = biological target: T8, human FcgRIIIa158F (human, UniProt P08637 17-208, biotinylated (site not stated)); assay: as above
T8 construct: Biotinylated receptor on streptavidin sensors
T8 sequence (P08637 17-208 limits assumed): as the sequence (P08637 17-208 F176V limits assumed) above, with V160F counted along it
Description: as §3

human FcgRIIa131H = biological target: T9, human FcgRIIa131H (human, UniProt P12318 36-218, biotinylated (site not stated)); assay: as above
T9 construct: Biotinylated receptor on streptavidin sensors
T9 sequence (looked up): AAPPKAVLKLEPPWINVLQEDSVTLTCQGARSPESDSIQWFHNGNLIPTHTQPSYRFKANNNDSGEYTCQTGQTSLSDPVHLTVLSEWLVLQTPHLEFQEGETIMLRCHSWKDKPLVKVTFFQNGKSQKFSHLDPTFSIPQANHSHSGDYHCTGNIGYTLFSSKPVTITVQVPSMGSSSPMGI
Description: as §3

human FcgRIIa131R = biological target: T10, human FcgRIIa131R (human, UniProt P12318 36-218, biotinylated (site not stated)); assay: as above
T10 construct: Biotinylated receptor on streptavidin sensors
T10 sequence (looked up): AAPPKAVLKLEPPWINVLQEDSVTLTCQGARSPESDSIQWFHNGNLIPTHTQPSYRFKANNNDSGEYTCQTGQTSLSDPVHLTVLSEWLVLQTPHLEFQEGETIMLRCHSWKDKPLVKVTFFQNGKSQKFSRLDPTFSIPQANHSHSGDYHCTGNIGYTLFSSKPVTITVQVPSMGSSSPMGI
Description: as §3

human FcgRIIb = biological target: T11, human FcgRIIb (human, UniProt P31994 43-217, biotinylated (site not stated)); assay: as above
T11 construct: Biotinylated receptor on streptavidin sensors
T11 sequence (looked up): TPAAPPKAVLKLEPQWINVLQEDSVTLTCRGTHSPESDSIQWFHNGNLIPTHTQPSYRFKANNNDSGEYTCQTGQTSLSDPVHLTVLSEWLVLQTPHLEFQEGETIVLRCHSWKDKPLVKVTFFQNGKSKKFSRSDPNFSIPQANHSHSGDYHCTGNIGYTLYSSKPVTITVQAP
Description: as §3

human FcgRIa = biological target: T12, human FcgRIa (human, UniProt P12314 16-288, limits assumed, biotinylated (site not stated)); assay: as above
T12 construct: Biotinylated receptor on streptavidin sensors
T12 sequence (P12314 16-288 limits assumed): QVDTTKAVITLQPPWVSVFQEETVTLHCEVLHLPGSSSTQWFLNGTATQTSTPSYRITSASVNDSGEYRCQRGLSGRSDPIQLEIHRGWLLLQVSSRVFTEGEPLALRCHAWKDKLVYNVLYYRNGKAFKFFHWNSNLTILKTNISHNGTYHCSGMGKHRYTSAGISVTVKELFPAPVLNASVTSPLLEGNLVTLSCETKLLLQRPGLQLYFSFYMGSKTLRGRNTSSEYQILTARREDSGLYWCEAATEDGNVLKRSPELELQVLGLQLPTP
Description: as §3

Row | Binder | Kd [1] | Kd (macaca mulatta GITR) | Kd (macaca Cynomolgus GITR) | binding result (murine GITR-Fc) | EC50 in ADCC reporter assay (Jurkat-NFAT-Luc-CD16 effector cells, Hek-293-GITR target cells) [2] | EC50 in cell agonist assay (HEK293-GITR-NFkB-Luc) [2] | level of activation in cell agonist assay (HEK293-GITR-NFkB-Luc) [2] | Kd (human FcRn) | Kd (human FcgRIIIa158V) | Kd (human FcgRIIIa158F) | Kd (human FcgRIIa131H) | Kd (human FcgRIIa131R) | Kd (human FcgRIIb) | Kd (human FcgRIa)
1 | B1 | 8.5 nM | 0.192 nM | 55.3 nM | no binding (tested: 10 µg/ml) | – | – | – | – | – | – | – | – | – | –
2 | B2 | – | – | – | – | 40 fold, against BCD166-01-01 | 20 fold, against BCD166-01-01 | 5 fold, against BCD166-01-01 | 27 nM | 118 nM | 1420 nM | 72.2 nM | 40.2 nM | 557 nM | 0.723 nM
3 | B3 | 0.0638 nM | 0.0924 nM | 0.542 nM | no binding (tested: 10 µg/ml) | – | – | – | – | – | – | – | – | – | –
